Assay results taken from publication PMC5909430 (Nucleic Acids Research, 2018).

What was measured:
[1] = biological target: T1, LeishIF4E-1 (Leishmania cap-binding isoform 1) (Leishmania major, UniProt E9ADE1 1-214); test: ITC
T1 sequence (looked up): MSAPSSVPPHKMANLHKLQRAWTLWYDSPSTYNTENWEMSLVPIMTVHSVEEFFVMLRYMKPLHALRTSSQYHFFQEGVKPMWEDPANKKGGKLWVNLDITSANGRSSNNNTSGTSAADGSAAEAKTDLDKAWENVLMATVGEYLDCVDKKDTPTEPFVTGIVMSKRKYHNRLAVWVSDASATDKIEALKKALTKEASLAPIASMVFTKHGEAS

human eIF4E = human eIF4E (human, UniProt P06730 1-217)
Chain of human eIF4E (P06730 whole entry): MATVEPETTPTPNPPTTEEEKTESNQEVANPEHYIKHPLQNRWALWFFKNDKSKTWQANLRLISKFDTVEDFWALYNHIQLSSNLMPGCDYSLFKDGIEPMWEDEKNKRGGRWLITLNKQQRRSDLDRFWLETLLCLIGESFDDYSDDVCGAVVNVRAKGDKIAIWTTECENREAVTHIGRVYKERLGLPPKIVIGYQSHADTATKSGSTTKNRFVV

Row | Binder | Kd [1] [nM] | dH [1] [kcal/mol] | fold lower binding affinity than for LeishIF4E-1 (human eIF4E) [fold]
1 | Leish4E-IP1_(1–100) (domain or fragment, Leishmania major, UniProt E9AFM3 1-100, looked up) MPSVRTMYTREELLRIATLASAMDLGPEVLRKFDVIEVAEPVPTPKRRDAESNFKGSVFTDNFSTSTTITNLGPNGGGNSGGKGGHNSGMNGGGSSSNHP | 87 | -3.11 ± 0.0804 | –
2 | Leish4E-IP1 (construct not stated; data not shown) (domain or fragment, Leishmania major, UniProt E9AFM3 1-52, looked up) MPSVRTMYTREELLRIATLASAMDLGPEVLRKFDVIEVAEPVPTPKRRDAES | – | – | 10
3 | Leish4E-IP1_(1–52) (domain or fragment, Leishmania major, UniProt E9AFM3 1-52, looked up) MPSVRTMYTREELLRIATLASAMDLGPEVLRKFDVIEVAEPVPTPKRRDAES | 9.7 | -15.5 ± 0.282 | –
